Target: T1, CAV1–mCherry (caveolin-1 fused to mCherry), Q03135
T1 chain: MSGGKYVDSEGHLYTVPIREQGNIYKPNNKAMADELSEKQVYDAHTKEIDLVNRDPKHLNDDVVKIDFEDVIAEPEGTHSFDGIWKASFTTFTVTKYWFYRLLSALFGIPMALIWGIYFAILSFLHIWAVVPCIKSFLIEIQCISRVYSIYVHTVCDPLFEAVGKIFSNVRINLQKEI
Test: FRET or BRET
Settings: remark: other sources report otherwise

FRET efficiency: 48%
B1: CAV1–mCherry (caveolin-1 fused to mCherry), Q03135 1-178 (natural protein)
chain: MSGGKYVDSEGHLYTVPIREQGNIYKPNNKAMADELSEKQVYDAHTKEIDLVNRDPKHLNDDVVKIDFEDVIAEPEGTHSFDGIWKASFTTFTVTKYWFYRLLSALFGIPMALIWGIYFAILSFLHIWAVVPCIKSFLIEIQCISRVYSIYVHTVCDPLFEAVGKIFSNVRINLQKEI

— PMC3364743
